According to US20230331860A1 (Bristol-Myers Squibb, published 2023):

Key:
human CD40 [1] = molecular target: T1, human CD40 (human, UniProt P25942 21-193); experiment: cell-based or functional assay
cynomolgus CD40 [2] = molecular target: T2, cynomolgus CD40 (cynomolgus monkey, UniProt G7PG38 21-193); experiment: cell-based or functional assay
human CD40 [3] = molecular target: T1, human CD40; experiment: cell-based or functional assay; parameters: IC50, suppression of CHO CD40L-induced IL-6 production by monocyte-derived DCs; n=4 donors (mass units as printed) / IC50, suppression of CHO CD40L-induced TNFα production by monocyte-derived DCs; n=4 donors (mass units as printed): unit not given beside the values
hCD64 [4] = molecular target: T3, hCD64 (human, UniProt P12314 16-288, limits assumed); experiment: FcγR binding, SPR (method per paragraph 74)
T3 construct: also called human CD64
T3 sequence (P12314 16-288 limits assumed): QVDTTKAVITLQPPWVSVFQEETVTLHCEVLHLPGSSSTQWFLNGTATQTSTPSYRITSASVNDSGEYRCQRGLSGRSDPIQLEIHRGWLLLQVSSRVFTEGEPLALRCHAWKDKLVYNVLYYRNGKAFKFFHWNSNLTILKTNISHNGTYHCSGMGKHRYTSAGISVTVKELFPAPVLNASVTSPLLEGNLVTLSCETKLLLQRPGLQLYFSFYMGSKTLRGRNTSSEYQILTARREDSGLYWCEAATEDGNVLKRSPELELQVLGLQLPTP

hCD32b = molecular target: T4, hCD32b (human, UniProt P31994 43-217, limits assumed); experiment: FcγR binding, SPR (method per paragraph 74)
T4 construct: also called hCD32b/FcγRIIb
T4 sequence (looked up): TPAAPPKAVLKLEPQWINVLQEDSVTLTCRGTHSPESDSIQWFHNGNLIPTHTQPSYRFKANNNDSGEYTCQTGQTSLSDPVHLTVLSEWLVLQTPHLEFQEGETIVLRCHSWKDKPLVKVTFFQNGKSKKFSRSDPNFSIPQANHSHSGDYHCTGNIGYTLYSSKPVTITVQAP

hCD16a-V158 = molecular target: T5, hCD16a-V158 (human, UniProt P08637 17-208, limits assumed); experiment: FcγR binding, SPR (method per paragraph 74)
T5 construct: Position 158 is the customary allotype numbering; also called hCD16a/FcγRIIIa, V158 variant
T5 sequence (P08637 17-208 F176V limits assumed): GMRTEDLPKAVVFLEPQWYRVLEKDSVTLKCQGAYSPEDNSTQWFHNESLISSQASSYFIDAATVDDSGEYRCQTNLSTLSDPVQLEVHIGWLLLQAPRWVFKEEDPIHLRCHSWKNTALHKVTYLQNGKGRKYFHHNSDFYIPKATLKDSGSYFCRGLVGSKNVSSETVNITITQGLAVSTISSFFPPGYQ

hCD16a-F158 = molecular target: T6, hCD16a-F158 (human, UniProt P08637 17-208, limits assumed); experiment: FcγR binding, SPR (method per paragraph 74)
T6 construct: Position 158 is the customary allotype numbering; also called hCD16a/FcγRIIIa, F158 variant
T6 sequence (P08637 17-208 limits assumed): as the sequence (P08637 17-208 F176V limits assumed) above, with V160F counted along it

cyCD32a = molecular target: T7, cyCD32a (cynomolgus monkey, UniProt A0A140HDN0 30-216); experiment: FcγR binding, SPR (method per paragraph 74)
T7 construct: also called cynomolgus CD32a
T7 sequence: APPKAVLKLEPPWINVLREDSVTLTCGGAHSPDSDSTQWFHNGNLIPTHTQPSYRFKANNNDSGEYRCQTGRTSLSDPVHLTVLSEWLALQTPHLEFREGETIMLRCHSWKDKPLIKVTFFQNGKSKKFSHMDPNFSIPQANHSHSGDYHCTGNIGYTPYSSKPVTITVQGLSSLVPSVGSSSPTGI

cyCD32b = molecular target: T8, cyCD32b (cynomolgus monkey, UniProt A0A140HDP4 43-217); experiment: FcγR binding, SPR (method per paragraph 74)
T8 construct: also called cynomolgus CD32b
T8 sequence: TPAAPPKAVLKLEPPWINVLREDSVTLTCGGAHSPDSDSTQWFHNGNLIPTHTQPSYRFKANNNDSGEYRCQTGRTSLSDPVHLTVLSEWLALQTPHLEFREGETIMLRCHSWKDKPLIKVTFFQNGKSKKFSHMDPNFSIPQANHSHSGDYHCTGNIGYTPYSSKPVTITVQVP

cyCD16 = molecular target: T9, cyCD16 (cynomolgus monkey, UniProt Q8SPW2 17-208, limits assumed); experiment: FcγR binding, SPR (method per paragraph 74)
T9 construct: also called cynomolgus CD16
T9 sequence (Q8SPW2 17-208 limits assumed): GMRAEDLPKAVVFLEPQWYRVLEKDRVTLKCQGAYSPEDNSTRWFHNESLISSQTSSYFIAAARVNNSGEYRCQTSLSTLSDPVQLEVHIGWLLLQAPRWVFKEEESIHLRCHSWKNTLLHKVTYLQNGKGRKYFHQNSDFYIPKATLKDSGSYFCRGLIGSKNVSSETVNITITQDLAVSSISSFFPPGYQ

hCD64 [5] = molecular target: T3, hCD64; experiment: FcγR binding, SPR (method per paragraph 74); remark: listed apart in the source
hCD32a-H131 = molecular target: T10, hCD32a-H131 (human, UniProt P12318 36-218, limits assumed); experiment: FcγR binding, SPR (method per paragraph 74)
T10 construct: Position 131 is the customary allotype numbering; also called hCD32a/FcγRIIa, H131 variant
T10 sequence (looked up): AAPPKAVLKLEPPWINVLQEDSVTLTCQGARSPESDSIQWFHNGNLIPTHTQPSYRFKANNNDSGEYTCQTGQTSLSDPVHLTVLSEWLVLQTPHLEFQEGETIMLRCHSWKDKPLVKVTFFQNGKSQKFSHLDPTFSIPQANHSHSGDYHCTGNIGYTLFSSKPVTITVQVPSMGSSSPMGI

hCD32a-R131 = molecular target: T11, hCD32a-R131 (human, UniProt P12318 36-218, limits assumed); experiment: FcγR binding, SPR (method per paragraph 74)
T11 construct: Position 131 is the customary allotype numbering; also called hCD32a/FcγRIIa, R131 variant
T11 sequence (looked up): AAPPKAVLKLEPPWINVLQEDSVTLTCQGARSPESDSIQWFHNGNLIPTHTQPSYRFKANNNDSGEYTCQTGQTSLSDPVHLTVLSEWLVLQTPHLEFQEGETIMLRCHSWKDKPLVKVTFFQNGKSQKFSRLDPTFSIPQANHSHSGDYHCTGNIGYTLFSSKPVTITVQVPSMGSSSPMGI

murine CD40 = molecular target: T12, murine CD40 (murine, UniProt P27512 24-193, limits assumed); experiment: single-cycle kinetic SPR, CD40 on the surface
T12 construct: also called murine CD40 receptors
T12 sequence (looked up): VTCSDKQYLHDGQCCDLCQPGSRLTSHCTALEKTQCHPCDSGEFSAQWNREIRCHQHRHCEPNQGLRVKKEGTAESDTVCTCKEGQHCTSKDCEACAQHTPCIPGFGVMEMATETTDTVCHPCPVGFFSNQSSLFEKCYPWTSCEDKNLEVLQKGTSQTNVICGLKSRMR

human CD40 [6] = molecular target: T1, human CD40; experiment: SPR, antibody captured on protein A chip, monomeric CD40 as analyte
cynomolgus CD40 [7] = molecular target: T2, cynomolgus CD40; experiment: as above
human CD40 [8] = molecular target: T1, human CD40; experiment: direct binding of AF488-labeled antibody to CD20-positive B cells in human whole blood; n=4 donors
cynomolgus CD40 [9] = molecular target: T2, cynomolgus CD40; experiment: direct binding of AF488-labeled antibody to CD20-positive B cells in cynomolgus monkey whole blood; n=2 donors
cynomolgus CD40 [10] = molecular target: T2, cynomolgus CD40; experiment: binding to CD20-positive B cells in cynomolgus monkey whole blood, detected with secondary anti-human IgG1-PE; n=4 donors
human CD40 [11] = molecular target: T1, human CD40; experiment: direct binding of AF488-labeled antibody to CD20-positive B cells in human whole blood; n=4 donors (same result in mass units)
cynomolgus CD40 [12] = molecular target: T2, cynomolgus CD40; experiment: direct binding of AF488-labeled antibody to CD20-positive B cells in cynomolgus monkey whole blood; n=2 donors (same result in mass units)
cynomolgus CD40 [13] = molecular target: T2, cynomolgus CD40; experiment: binding to CD20-positive B cells in cynomolgus monkey whole blood, detected with secondary anti-human IgG1-PE; n=4 donors (same result in mass units)

T1 sequence (P25942 21-193 limits assumed): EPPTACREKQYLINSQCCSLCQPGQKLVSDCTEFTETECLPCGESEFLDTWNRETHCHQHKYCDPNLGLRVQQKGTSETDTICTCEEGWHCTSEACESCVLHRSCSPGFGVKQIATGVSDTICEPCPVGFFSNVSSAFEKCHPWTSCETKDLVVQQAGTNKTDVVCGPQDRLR

B1: BMS-986325 (antibody, human IgG1, kappa)
heavy: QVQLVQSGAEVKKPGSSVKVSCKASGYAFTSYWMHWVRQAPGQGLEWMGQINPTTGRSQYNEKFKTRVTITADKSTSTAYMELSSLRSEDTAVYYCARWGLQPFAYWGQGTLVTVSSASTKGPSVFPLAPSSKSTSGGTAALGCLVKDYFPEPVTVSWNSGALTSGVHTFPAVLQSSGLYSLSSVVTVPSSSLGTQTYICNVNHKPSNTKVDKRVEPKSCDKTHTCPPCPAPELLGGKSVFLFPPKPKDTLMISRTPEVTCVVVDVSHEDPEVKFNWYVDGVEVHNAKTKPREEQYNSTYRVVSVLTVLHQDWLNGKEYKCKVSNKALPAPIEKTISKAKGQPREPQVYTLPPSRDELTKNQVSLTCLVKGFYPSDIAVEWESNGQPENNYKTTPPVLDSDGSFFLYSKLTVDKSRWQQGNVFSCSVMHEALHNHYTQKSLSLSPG
light: DIQMTQSPSFLSASVGDRVTITCKASQDVSTAVAWYQQKPGKAPKLLIYSASYRYTGVPSRFSGSGSGTDFTLTISSLQPEDFATYYCQQHYSTPWTFGGGTKVEIKRTVAAPSVFIFPPSDEQLKSGTASVVCLLNNFYPREAKVQWKVDNALQSGNSQESVTEQDSKDSTYSLSSTLTLSKADYEKHKVYACEVTHQGLSSPVTKSFNRGEC
notes: also called Y12XX-hz28-P238K; Y12XX-hz28 (Vh-hz14)
Question: How did the “IC50, inhibition of CD54 upregulation on human B cells in whole blood stimulated by soluble CD40L trimer; n=10 donors” value (human CD40 [1]) turn out when B1 was run?
Answer: The value was 0.24 nM.

Question: What about the “IC50, inhibition of CD54 upregulation on human B cells in whole blood stimulated by soluble CD40L trimer; n=10 donors (mass units)” value (human CD40 [1]) of the same binder?
Answer: The value was 0.0346 µg/mL.

Question: And the “IC50, inhibition of CD86 upregulation on human B cells in whole blood stimulated by soluble CD40L trimer; n=10 donors” value (human CD40 [1])?
Answer: The value was 0.24 nM.

Question: What about the “IC50, inhibition of CD86 upregulation on human B cells in whole blood stimulated by soluble CD40L trimer; n=10 donors (mass units)” value (human CD40 [1]) of the same binder?
Answer: The value was 0.0342 µg/mL.

Question: What about the “IC50, inhibition of human tonsillar B-cell proliferation stimulated by soluble CD40L trimer; n=10 donors” value (human CD40 [1]) of the same binder?
Answer: The value was 0.04 nM.

Question: What about the “IC50, inhibition of human tonsillar B-cell proliferation stimulated by soluble CD40L trimer; n=10 donors (mass units)” value (human CD40 [1]) of the same binder?
Answer: Its value is 0.0056 µg/mL.

Question: What about the “IC50, inhibition of tonsillar B-cell proliferation stimulated by CD40L-expressing CHO cells; n=8 donors” value (human CD40 [1]) of the same binder?
Answer: Its value is 0.28 nM.

Question: And the “IC50, inhibition of tonsillar B-cell proliferation stimulated by CD40L-expressing CHO cells; n=8 donors (mass units)” value (human CD40 [1])?
Answer: Its value is 0.0399 µg/mL.

Question: What about the “IC50, inhibition of CD86 upregulation on cynomolgus B cells in whole blood stimulated by soluble CD40L trimer; n=8 donors” value (cynomolgus CD40 [2]) of the same binder?
Answer: Its value is 0.25 nM.

Question: And the “IC50, inhibition of CD86 upregulation on cynomolgus B cells in whole blood stimulated by soluble CD40L trimer; n=8 donors (mass units)” value (cynomolgus CD40 [2])?
Answer: Its value is 0.0364 µg/mL.

Question: And the “IC50, inhibition of cynomolgus splenic B-cell proliferation driven by CD40L-expressing CHO cells; n=6 donors” value (cynomolgus CD40 [2])?
Answer: Its value is 4.5 nM.

Question: And the “IC50, inhibition of cynomolgus splenic B-cell proliferation driven by CD40L-expressing CHO cells; n=6 donors (mass units)” value (cynomolgus CD40 [2])?
Answer: The value was 0.65 µg/mL.

Question: And the “IC50, inhibition of cynomolgus splenic B-cell proliferation driven by CD40L-trimer; n=6 donors” value (cynomolgus CD40 [2])?
Answer: The value was 0.19 nM.

Question: And the “IC50, inhibition of cynomolgus splenic B-cell proliferation driven by CD40L-trimer; n=6 donors (mass units)” value (cynomolgus CD40 [2])?
Answer: Its value is 0.0278 µg/mL.

Question: And the “IC50, suppression of CHO CD40L-induced IL-6 production by monocyte-derived DCs; n=4 donors” value (human CD40 [3])?
Answer: Its value is 0.08 nM.

Question: What about the “IC50, suppression of CHO CD40L-induced IL-6 production by monocyte-derived DCs; n=4 donors (mass units as printed)” value (human CD40 [3]) of the same binder?
Answer: Its value is 11.3.

Question: What about the “IC50, suppression of CHO CD40L-induced TNFα production by monocyte-derived DCs; n=4 donors” value (human CD40 [3]) of the same binder?
Answer: Its value is 0.1 nM.

Question: And the “IC50, suppression of CHO CD40L-induced TNFα production by monocyte-derived DCs; n=4 donors (mass units as printed)” value (human CD40 [3])?
Answer: The value was 13.3.

Question: What about the “fold weaker binding than wild-type human IgG1 control” value (hCD64 [4]) of the same binder?
Answer: Its value is 100 fold.

Question: Does B1 bind (hCD32b)?
Answer: Result: no binding

Question: Does B1 bind (hCD16a-V158)?
Answer: Result: no binding

Question: Does B1 bind (hCD16a-F158)?
Answer: Result: no binding

Question: Does B1 bind (cyCD32a)?
Answer: Result: no binding

Question: Does B1 bind (cyCD32b)?
Answer: Result: no binding

Question: Does B1 bind (cyCD16)?
Answer: Result: no binding

Question: What about the Kd (hCD64 [5]) of the same binder?
Answer: The Kd was 17 nM.

Question: Does B1 bind (hCD32a-H131)?
Answer: Result: no binding

Question: Does B1 bind (hCD32a-R131)?
Answer: Result: no binding

Question: Does B1 bind (murine CD40)?
Answer: Result: no binding

Question: And the Kd (human CD40 [6])?
Answer: The Kd was 5.3 nM.

Question: What about the koff (human CD40 [6]) of the same binder?
Answer: The koff was 0.0012 s⁻¹.

Question: And the kon (human CD40 [6])?
Answer: Its kon is 230000 M⁻¹ s⁻¹.

Question: What about the Kd (cynomolgus CD40 [7]) of the same binder?
Answer: Its Kd is 6.7 nM.

Question: What about the koff (cynomolgus CD40 [7]) of the same binder?
Answer: The koff was 0.0016 s⁻¹.

Question: And the kon (cynomolgus CD40 [7])?
Answer: Its kon is 240000 M⁻¹ s⁻¹.

Question: What about the EC50 (human CD40 [8]) of the same binder?
Answer: The EC50 was 0.9 nM.

Question: What about the EC50 (cynomolgus CD40 [9]) of the same binder?
Answer: The EC50 was 1 nM.

Question: And the EC50 (cynomolgus CD40 [10])?
Answer: Its EC50 is 0.7 nM.

Question: What about the EC50 (human CD40 [11]) of the same binder?
Answer: Its EC50 is 0.13 µg/mL.

Question: And the EC50 (cynomolgus CD40 [12])?
Answer: Its EC50 is 0.149 µg/mL.

Question: What about the EC50 (cynomolgus CD40 [13]) of the same binder?
Answer: Its EC50 is 0.106 µg/mL.
